Values joined by “and” are separate entries in the source; they are usually repeats but may differ in a detail not shown here. Identical values can stand only once. Like-named read-outs stand apart in the source and are kept apart here.
Experiments:
[1] = biological target: RSV IN (1-269) (Rous sarcoma virus (Prague A)); assay: SEC
[2] = biological target: RSV IN (1-278 aa) (Rous sarcoma virus (Prague A)); assay: SEC
[3] = biological target: RSV IN (1-278 aa) (Rous sarcoma virus (Prague A))

RSV IN (1-269) (domain or fragment) showed a stoichiometry N [1] of 4.
For RSV IN (1-278 aa) (domain or fragment), the stoichiometry N [2] was 4 and 8 and the stoichiometry N [3] was 2.

From publication doi:10.1101/2025.09.09.675266
